Measurements reported in patent US6040149A, “Assay for identifying agents which act on the ceramide-activated protein kinase, kinase suppressor of ras, and methods of using said agents” (priority 1997, dated 2000).

T1: KSR (Mus musculus, UniProt Q61097)
T1 sequence (Q61097 1-873): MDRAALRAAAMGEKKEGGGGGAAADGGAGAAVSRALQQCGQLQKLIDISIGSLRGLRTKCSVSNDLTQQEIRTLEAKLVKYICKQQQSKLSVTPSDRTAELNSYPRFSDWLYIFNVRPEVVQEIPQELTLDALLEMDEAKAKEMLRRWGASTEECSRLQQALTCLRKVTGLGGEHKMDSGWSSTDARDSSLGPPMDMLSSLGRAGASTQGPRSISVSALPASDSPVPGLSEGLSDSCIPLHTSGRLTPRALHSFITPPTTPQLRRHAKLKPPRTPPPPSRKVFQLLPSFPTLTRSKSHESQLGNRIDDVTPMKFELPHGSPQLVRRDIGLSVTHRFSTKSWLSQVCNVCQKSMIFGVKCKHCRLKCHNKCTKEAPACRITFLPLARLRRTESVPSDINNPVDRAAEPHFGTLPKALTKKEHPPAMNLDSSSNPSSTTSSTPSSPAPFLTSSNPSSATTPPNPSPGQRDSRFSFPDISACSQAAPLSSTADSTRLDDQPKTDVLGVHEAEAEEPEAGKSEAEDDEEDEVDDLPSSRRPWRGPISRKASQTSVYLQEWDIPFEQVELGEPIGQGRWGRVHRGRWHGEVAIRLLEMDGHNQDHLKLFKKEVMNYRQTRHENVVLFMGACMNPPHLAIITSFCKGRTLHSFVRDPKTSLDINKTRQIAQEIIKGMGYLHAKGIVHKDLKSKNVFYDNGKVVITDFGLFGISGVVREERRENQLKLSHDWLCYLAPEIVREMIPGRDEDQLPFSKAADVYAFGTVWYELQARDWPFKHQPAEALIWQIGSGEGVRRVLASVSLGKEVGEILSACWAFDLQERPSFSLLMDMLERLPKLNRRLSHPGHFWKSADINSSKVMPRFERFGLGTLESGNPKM

B1: KSR: mouse kinase suppressor of ras, Flag-tagged (protein, UniProt Q61097 1-873, looked up)
Kinase suppressor of Ras 1: T1 sequence (Q61097 1-873)
modifications: Flag tag
notes: mouse kinase suppressor of ras, Flag-tagged
B2: EGF: EGF (protein, UniProt P01133 23-1207, looked up)
Pro-epidermal growth factor: PQHWSCPEGTLAGNGNSTCVGPAPFLIFSHGNSIFRIDTEGTNYEQLVVDAGVSVIMDFHYNEKRIYWVDLERQLLQRVFLNGSRQERVCNIEKNVSGMAINWINEEVIWSNQQEGIITVTDMKGNNSHILLSALKYPANVAVDPVERFIFWSSEVAGSLYRADLDGVGVKALLETSEKITAVSLDVLDKRLFWIQYNREGSNSLICSCDYDGGSVHISKHPTQHNLFAMSLFGDRIFYSTWKMKTIWIANKHTGKDMVRINLHSSFVPLGELKVVHPLAQPKAEDDTWEPEQKLCKLRKGNCSSTVCGQDLQSHLCMCAEGYALSRDRKYCEDVNECAFWNHGCTLGCKNTPGSYYCTCPVGFVLLPDGKRCHQLVSCPRNVSECSHDCVLTSEGPLCFCPEGSVLERDGKTCSGCSSPDNGGCSQLCVPLSPVSWECDCFPGYDLQLDEKSCAASGPQPFLLFANSQDIRHMHFDGTDYGTLLSQQMGMVYALDHDPVENKIYFAHTALKWIERANMDGSQRERLIEEGVDVPEGLAVDWIGRRFYWTDRGKSLIGRSDLNGKRSKIITKENISQPRGIAVHPMAKRLFWTDTGINPRIESSSLQGLGRLVIASSDLIWPSGITIDFLTDKLYWCDAKQSVIEMANLDGSKRRRLTQNDVGHPFAVAVFEDYVWFSDWAMPSVMRVNKRTGKDRVRLQGSMLKPSSLVVVHPLAKPGADPCLYQNGGCEHICKKRLGTAWCSCREGFMKASDGKTCLALDGHQLLAGGEVDLKNQVTPLDILSKTRVSEDNITESQHMLVAEIMVSDQDDCAPVGCSMYARCISEGEDATCQCLKGFAGDGKLCSDIDECEMGVPVCPPASSKCINTEGGYVCRCSEGYQGDGIHCLDIDECQLGEHSCGENASCTNTEGGYTCMCAGRLSEPGLICPDSTPPPHLREDDHHYSVRNSDSECPLSHDGYCLHDGVCMYIEALDKYACNCVVGYIGERCQYRDLKWWELRHAGHGQQQKVIVVAVCVVVLVMLLLLSLWGAHYYRTQKLLSKNPKNPYEESSRDVRSRRPADTEDGMSSCPQPWFVVIKEHQDLKNGGQPVAGEDGQAADGSMQPTSWRQEPQLCGMGTEQGCWIPVSSDKGSCPQVMERSFHMPSYGTQTLEGGVEKPHSLLSANPLWQQRALDPPHQMELTQ
modifications: Pro-epidermal growth factor

Key:
[1] = tested on: Raf-1; test: Raf-1 activity after co-expression with KSR in COS-7 cells; type: cell-based, human (Raf-1 expressed in COS-7 cells)
Procedure: Some studies used untagged KSR (n=4) and yielded identical results. At 60 hours post-transfection, cells were lysed with RIPA buffer (NP-40 buffer containing 0.1% SDS and 0.1% deoxy cholate). […] […]. The samples were boiled for 5 min, resolved with SDS-PAGE (7.5%) and autoradiographed.
[…]. After 30 min, the reaction was stopped by addition of Laemmli sample buffer and phosphorylated MBP were resolved by 15% SDS-PAGE, prior to autoradiography.
; a kind gift of Dr. Natalie Ahn) or 1.25 μg recombinant human MEK1 (Santa Cruz), 0.625 μg recombinant human ERK1 (UBI) and myelin basic protein (MBP). After 20-30 min, the reaction was stopped by addition of SDS sample buffer. […]

[2] = tested on: Raf-1; test: Activation of Raf-1 by KSR in vitro (MEK1 phosphorylation)
[3] = target: T1, KSR; test: KSR autophosphorylation after treatment of COS-7 cells expressing KSR; type: cell-based, mouse (KSR expressed in COS-7 cells); details: COS-7 cells, preliminary
Procedure: FIG. 23A--COS-7 cells were transfected as in FIG. 22A and placed in serum-free medium. After 4 hours, cells were stimulated for 10 min with the ceramide analog, C2-ceramide (Biomol), at the concentrations indicated. Cells were lysed with NP-40 lysis buffer, and Flag-tagged KSR (0.8 mg protein for each point) was immunoprecipitated and assayed for autophosphorylation activity as described in Experimental Procedures. The autoradiogram was exposed for 1 hour. KSR is expressed at similar levels in each sample as monitored by Western blot (data not shown). Data represent one of three similar experiments.
COS-7 cells expressing Flag-tagged KSR were stimulated with 10 nM TNFα for the times indicated and lysed with NP-40 buffer as in FIG. 2A. […] The autoradiogram was exposed for 1 hour. Data represent one of three similar experiments.
KSR was immunoprecipitated as above from 0.8 mg NP-40 lysate protein with 40 μl agarose-conjugated anti-Flag antibody at 4° C. for 4 hrs or overnight. […] The reaction was stopped by addition of Laemmli sample buffer. Samples were resolved by 7.5% sodium dodecyl sulfate-polyacrylamide gel electrophoresis (SDS-PAGE) and autoradiographed.

| Molecule | Raf-1 activation in COS-7 cells co-expressing KSR [1] | direct effect on MEK or ERK [2] | activation of KSR/CAP kinase [3] |
| --- | --- | --- | --- |
| B1 | marked increase in Raf-dependent MEK1 phosphorylation | no direct effect |  |
| B2 |  |  | does not activate KSR/CAP kinase |
